Drawing on publication PMC9254573 (Biochemistry, 2022), this text covers Kd for three molecules.

The target of assay [1] is CCR7 (Homo sapiens). Briefly: nanoDSF. To be noted: cited from earlier work.
The target of assay [2] is CCR7 (Homo sapiens). Briefly: nanoDSF. To be noted: cited from earlier work. This is another data set of the same source.
For assay [3], the target named is CCR7 N-terminus (Homo sapiens) (UniProt P32248). In words: nanoDSF. To be noted: cited from earlier work.
The target in assay [4] is CCR7 (Homo sapiens). In words: NMR. To be noted: cited from earlier work.
The target in assay [5] is T1, Recombinant human [U-15N] CCL19 (human, UniProt Q99731 22-98, uniformly 15N-labelled ([U-15N])).
T1 sequence (looked up): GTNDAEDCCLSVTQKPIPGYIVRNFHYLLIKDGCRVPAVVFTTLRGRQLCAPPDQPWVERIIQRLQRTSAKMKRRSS
Briefly: NMR titration.

Ends that are not written are not given here. A value given as a limit tells only on which side of the number the result lay.

Chain of CCL21 (O00585 24-134): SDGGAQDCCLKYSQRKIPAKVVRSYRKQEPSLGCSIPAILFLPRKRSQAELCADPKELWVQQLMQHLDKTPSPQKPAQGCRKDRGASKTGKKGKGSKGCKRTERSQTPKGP
Chain of CCR7 N-terminus (Homo sapiens) (P32248 25-59): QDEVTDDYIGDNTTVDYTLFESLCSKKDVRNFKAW

Regarding CCL19 (from UniProt Q99731), the Kd with CCR7 (Homo sapiens) [1] is 800 nM; with CCR7 (Homo sapiens) [2], 300 nM; in assay [3], over 1000 nM.

For CCL21 (from UniProt O00585), the Kd in the assay with CCR7 (Homo sapiens) [4] was 700000 nM.

Take TDDYIGD-NH2 [CCR7 5-11 peptide (TDDYIGD-NH2)]: in assay [5], the Kd is 200000 ± 100000 nM.
